{
  "source": "patent US20170028070A1",
  "tested_on": "HER2 epitope peptide",
  "settings": "5'-H2N-(CH2)6; doxorubicin intercalated, Dox:aptamer 10:1; apparent Kd from doxorubicin fluorescence release upon epitope binding; Dox molar ratio 10",
  "data": [
    {"sequence": "AACCGCCCAAATCCCTAAGAGTCTGCACTTGTCATTTTGTATATGTATTTGGTTTTTGGCTCTCACAGACACACTACACACGCACA [Dox-loaded anti-HER2 aptamer]", "values": [
      {"measurement": "Kd", "value": 50, "unit": "nM"}
    ]}
  ]
}
